Measurements published in paper PMC11564776, “Enzyme stabilisation due to incorporation of a fluorinated non-natural amino acid at the protein surface” (Scientific Reports, 2024).

Substrate: O=CCO
Test: HPLC of erythrulose formation, initial velocities, Michaelis-Menten fit
Format: biochemical, Escherichia coli
Settings: 50 mM HPA, 1.36 mM ThDP, 5.1 mM MgCl2, 33 mM Tris.HCl, pH 7.0, assay 21 °C, pre-incubated 15 min at 21 °C, standard error in parentheses
Source text: HPLC of erythrulose formation, initial velocities, Michaelis-Menten fit on WT transketolase (WT TK)

B1: WT transketolase (WT TK) (Escherichia coli K-12) (protein)
chain: MSSRKELANAIRALSMDAVQKAKSGHPGAPMGMADIAEVLWRDFLKHNPQNPSWADRDRFVLSNGHGSMLIYSLLHLTGYDLPMEELKNFRQLHSKTPGHPEVGYTAGVETTTGPLGQGIANAVGMAIAEKTLAAQFNRPGHDIVDHYTYAFMGDGCMMEGISHEVCSLAGTLKLGKLIAFYDDNGISIDGHVEGWFTDDTAMRFEAYGWHVIRDIDGHDAASIKRAVEEARAVTDKPSLLMCKTIIGFGSPNKAGTHDSHGAPLGDAEIALTREQLGWKYAPFEIPSEIYAQWDAKEAGQAKESAWNEKFAAYAKAYPQEAAEFTRRMKGEMPSDFDAKAKEFIAKLQANPAKIASRKASQNAIEAFGPLLPEFLGGSADLAPSNLTLWSGSKAINEDAAGNYIHYGVREFGMTAIANGISLHGGFLPYTSTFLMFVEYARNAVRMAALMKQRQVMVYTHDSIGLGEDGPTHQPVEQVASLRVTPNMSTWRPCDQVESAVAWKYGVERQDGPTALILSRQNLAQQERTEEQLANIARGGYVLKDCAGQPELIFIATGSEVELAVAAYEKLTAEGVKARVVSMPSTDAFDKQDAAYRESVLPKAVTARVAVEAGIADYWYKYVGLNGAIVGMTTFGESAPAELLFEEFGFTVDNVVAKAKELL
notes: full length, N-terminal His6 tag (plasmid pQR791), Ni-NTA purified, tag cleavage not mentioned; homodimer of 73-74 kDa monomers; WT expressed in E. coli XL10-Gold, variants in E. coli C321.dA.exp
In the case of B1, the Km is reported as 22 (3) mM, the Vmax is reported as 4600 µM/min and the kcat is reported as 53.3 s⁻¹. It also gave a kcat/Km of 2500 M⁻¹ s⁻¹.
